Data reported in publication PMC7997005, “Dynamic interplay between the co-opted Fis1 mitochondrial fission protein and membrane contact site proteins in supporting tombusvirus replication” (PLoS Pathogens, 2021).

Target: T1, TBSV Flag-p33 replication protein (tomato bushy stunt virus (TBSV), UniProt P15962 1-296)
T1 construct: TBSV p33 replication protein; co-expressed and co-purified with Flag-p92pol; source: yeast, expressed from a plasmid, in detergent-solubilized membrane fraction
T1 sequence: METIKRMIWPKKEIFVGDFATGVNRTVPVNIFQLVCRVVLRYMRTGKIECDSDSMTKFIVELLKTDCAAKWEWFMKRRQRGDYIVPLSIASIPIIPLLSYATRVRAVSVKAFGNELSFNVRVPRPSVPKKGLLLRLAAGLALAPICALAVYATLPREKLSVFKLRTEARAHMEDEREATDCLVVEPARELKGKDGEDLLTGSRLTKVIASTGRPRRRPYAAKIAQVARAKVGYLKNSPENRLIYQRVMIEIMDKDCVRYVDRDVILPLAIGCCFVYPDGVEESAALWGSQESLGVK
Test: co-IP; Flag-affinity purification of Flag-tagged replication proteins (TBSV Flag-p33 + Flag-p92pol or CIRV Flag-p36 + Flag-p95pol) from the detergent-solubilized membrane fraction of yeast; samples cross-linked with formaldehyde; co-purified His6-tagged proteins detected with anti-His antibody; WT, fis1Δ, Fis1p- or Dnm1-ZZ-over-expressing yeast; cycloheximide time course
Details: partners not purified

B1: yeast His6-Osh6p (natural protein, S. cerevisiae, UniProt Q02201 1-448, looked up)
chain: MGSKKLTVGSDSHRLSKSSFSSNKSSHSATKDQPIDTDDIDEDDESGHNIILNIISQLRPGCDLTRITLPTFILEKKSMLERVTNQLQFPEFLLQAHSEKDPLKRFLYVMKWYLAGWHIAPKAVKKPLNPVLGEYFTAYWDLPNKQQAYYISEQTSHHPPECAYFYMIPESSIRVDGVVIPKSRFLGNSSAAMMDGSTVLQFLDIKDGNGKPEKYVLTQPNVYVRGILFGKMRIELGDHMIIKSPNFQADIEFKTKGYVFGTYDAIEGTVKDYDGNAYYEISGKWNDVMYLKDLKQPRSSPKVFLDTHKESPLRPKVRPLSEQGEYESRKLWKKVTDALAVRNHPVATEEKFQIEDHQRQLAKKRIEDGVEFHPKLFRRSKPGEDLDYCIYKNIPVDEDPEKQIRSILQIAPILPGQQFTDKFFIPAFEKIKSQKKMIENEKQNPAKQ
notes: source: yeast, expressed from a plasmid, in detergent-solubilized membrane fraction
  fold of co-purified Osh6p, Fis1p-over-expressing against WT yeast: 3.5 fold more
  fold of co-purified Osh6p, fis1Δ against WT yeast: ~4 fold less

B2: yeast His6-Fis1p (natural protein, S. cerevisiae, UniProt P40515 1-155, looked up)
chain: MTKVDFWPTLKDAYEPLYPQQLEILRQQVVSEGGPTATIQSRFNYAWGLIKSTDVNDERLGVKILTDIYKEAESRRRECLYYLTIGCYKLGEYSMAKRYVDTLFEHERNNKQVGALKSMVEDKIQKETLKGVVVAGGVLAGAVAVASFFLRNKRR
notes: Fis1p mitochondrial fission 1 protein, S. cerevisiae; also called HisScFis1; source: yeast, expressed from a plasmid, in detergent-solubilized membrane fraction
  fold reduction of co-purified Fis1p when Dnm1p is co-expressed, against yeast without Dnm1p over-expression: ~8 fold

B3: yeast His6-Sac1p (enzyme, S. cerevisiae, UniProt P32368 1-623, looked up)
chain: MTGPIVYVQNADGIFFKLAEGKGTNDAVIHLANQDQGVRVLGAEEFPVQGEVVKIASLMGFIKLKLNRYAIIANTVEETGRFNGHVFYRVLQHSIVSTKFNSRIDSEEAEYIKLLELHLKNSTFYFSYTYDLTNSLQRNEKVGPAASWKTADERFFWNHYLTEDLRNFAHQDPRIDSFIQPVIYGYAKTVDAVLNATPIVLGLITRRSIFRAGTRYFRRGVDKDGNVGNFNETEQILLAENPESEKIHVFSFLQTRGSVPIYWAEINNLKYKPNLVLGENSLDATKKHFDQQKELYGDNYLVNLVNQKGHELPVKEGYESVVHALNDPKIHYVYFDFHHECRKMQWHRVKLLIDHLEKLGLSNEDFFHKVIDSNGNTVEIVNEQHSVVRTNCMDCLDRTNVVQSVLAQWVLQKEFESADVVATGSTWEDNAPLLTSYQNLWADNADAVSVAYSGTGALKTDFTRTGKRTRLGAFNDFLNSASRYYQNNWTDGPRQDSYDLFLGGFRPHTASIKSPFPDRRPVYIQLIPMIICAALTVLGATIFFPKDRFTSSKNLLYFAGASIVLALSTKFMFKNGIQFVNWPKLVDVGFLVVHQTHDKEQQFKGLKYAQSPKFSKPDPLKRD
notes: Sac1p PI4P phosphatase, S. cerevisiae; source: yeast, expressed from a plasmid, in detergent-solubilized membrane fraction
  fold of co-purified Sac1p, Fis1p-over-expressing against WT yeast: > 2 fold
